The text below walks through data of paper PMC3072266.

The data set deals with 3AB wild type (poliovirus type 1 (Mahoney), UniProt P03300 1457-1565). Nature of the data set: EMSA.
3AB wild type, sequence (P03300 1457-1565): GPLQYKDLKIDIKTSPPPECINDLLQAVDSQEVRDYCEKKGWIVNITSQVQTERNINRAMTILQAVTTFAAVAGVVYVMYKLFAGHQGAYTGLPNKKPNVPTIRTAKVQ

For GAGUGCACCAUAUGCCAUUCAGGCUACGCAACUGUUGGGA (ssRNA) [40-mer RNA], the binding result is recorded as “binds”.
